The values below come from article PMC8096331, “Completion of the gut microbial epi-bile acid pathway” (Gut Microbes, 2021).

Data set [1] has as its target Clostridium paraputrificum ATCC 25780 bile acid 12β-HSDH (WP_027099077.1) (Clostridium paraputrificum ATCC 25780). Description: SEC; Superose 6 10/300 GL analytical column, 4°C, 50 mM Tris-Cl, 150 mM NaCl, pH 7.5; purified protein loaded at 10 mg/mL, 0.3 ml/min; native mass estimated against Bio-Rad gel filtration standards.
Substrate in data set [2]: NC(=O)C1=CN([C@@H]2O[C@H](COP(=O)(O)OP(=O)(O)OC[C@H]3O[C@@H](n4cnc5c(N)ncnc54)[C@H](OP(=O)(O)O)[C@@H]3O)[C@@H](O)[C@H]2O)C=CC1
Description: purified protein. The following applies: reductive direction, 80 µM 12-oxoLCA, 10 nM enzyme, sodium phosphate pH 7.0, varied: cofactor.

Substrate in data set [3]: C[C@H](CCC(=O)O)[C@H]1CC[C@H]2[C@@H]3CC[C@@H]4C[C@H](O)CC[C@]4(C)[C@H]3C[C@@H](O)[C@]12C
The experiment in a line: purified protein. In kind it is biochemical, Clostridium paraputrificum. Conditions: oxidative direction; 300 µM NADP+; 10 nM enzyme; sodium phosphate pH 7.5; pH 7.5.

Substrate in data set [4]: NC(=O)c1ccc[n+]([C@@H]2O[C@H](COP(=O)(O)OP(=O)(O)OC[C@H]3O[C@@H](n4cnc5c(N)ncnc54)[C@H](OP(=O)(O)O)[C@@H]3O)[C@@H](O)[C@H]2O)c1
The experiment in a line: purified protein. It counts as biochemical, Clostridium paraputrificum. The following applies: oxidative direction; 100 µM epiDCA; 10 nM enzyme; sodium phosphate pH 7.5; pH 7.5; varied: cofactor.

Substrate in data set [5]: [H][C@]12CC[C@]3([H])[C@]([H])(CC(=O)[C@@]4(C)[C@@]3([H])CC[C@]4([H])[C@H](C)CCC(=O)O)[C@@]1(C)CC[C@@H](O)C2
The experiment in a line: purified protein. It counts as biochemical, Clostridium paraputrificum. The following applies: reductive direction; 150 µM NADPH; 10 nM enzyme; sodium phosphate pH 7.0; pH 7.0.

For the molecule “Clostridium paraputrificum ATCC 25780 bile acid 12β-HSDH (WP_027099077.1) (enzyme)”, in data set [1], the stoichiometry N (in general, a count of units in the complex or per binding partner) was 2.

B1: Cp12β-HSDH (Clostridium paraputrificum) (protein)
chain: MKELNEKVAIITGAGQGIGKGIALHLGKRGVKVVCVGRRLDPIVQTVKEVEEAGGQGFAITCDVGNREDVKKVVKATVEKYGTVDVVVNNAQSLPGSAKVEDTTYEQMLTAWQSGTIGSLNMMQECFPYMKDQNEGRIINFASATGMFGYAGQLAYGCNKESIRGLTKIAAKEWAQYNIIVNCVLPGAESPAAKVWAEKFPEKYKEIMEAQPMKRFGDGEDDIGRVIAFLAGPDSKYYTGQCLLVDGGYSIAP
notes: full length, N-terminal His6 tag (pET-28a(+)), E. coli BL21-CodonPlus(DE3) RIPL, TALON purified
As to B1, in data set [2], the Km (usually the concentration of substrate that gives half-maximal velocity) came to 29.16 ± 0.42 µM; the Vmax (in general, the top rate of the reaction or transport when substrate is in excess) was found to be 61.8 µmol/min/mg; the kcat (usually the maximal rate divided by the concentration of active sites) is 28.1 s⁻¹; the kcat/Km – broadly, the turnover number divided by the Michaelis constant – worked out at 970000 M⁻¹ s⁻¹. In data set [3], the Km stood at 44.43 ± 1.13 µM, the Vmax was 130 µmol/min/mg, the kcat is 59.3 ± 5.47 s⁻¹ and the specificity constant (kcat/Km) is 1.34e+06 ± 150000 M⁻¹ s⁻¹. In addition, in data set [4], the Km stood at 36.84 ± 0.55 µM, the maximum rate (Vmax) is 97.9 µmol/min/mg, the kcat came out at 44.6 ± 3.77 s⁻¹ and the kcat/Km worked out at 1.21e+06 ± 120000 M⁻¹ s⁻¹. Further, in data set [5], the Km is 18.76 ± 0.40 µM, the Vmax is 58.4 µmol/min/mg, the kcat is 26.6 ± 1.62 s⁻¹ and the kcat/Km was 1.42e+06 ± 110000 M⁻¹ s⁻¹.
